In article PMC5607398, “Neisseria cinerea Expresses a Functional Factor H Binding Protein Which Is Recognized by Immune Responses Elicited by Meningococcal Vaccines” (Infection and Immunity, 2017):

B2: Neisseria meningitidis V1.1 factor H binding protein (V1.1 fHbp), recombinant (natural protein)
chain: GGVAADIGAGLADALTAPLDHKDKGLQSLTLDQSVRKNEKLKLAAQGAEKTYGNGDSLNTGKLKNDKVSRFDFIRQIEVDGQLITLESGEFQVYKQSHSALTAFQTEQIQDSEHSGKMVAKRQFRIGDIAGEHTSFDKLPEGGRATYRGTAFGSDDAGGKLTYTIDFAAKQGNGKIEHLKSPELNVDLAAADIKPDGKRHAVISGSVLYNQAEKGSYSLGIFGGKAQEVAGSAEVKTVNGIRHIGLAAKQ
notes: source: E. coli BL21(DE3), pET21b, purified (HisTrap, anion exchange)

Key:
[1] = biological target: full-length human CFH (Sigma) (UniProt P08603); experiment: ELISA; settings: read off a plot
[2] = biological target: Neisseria cinerea CCUG 346T factor H binding protein (V1.110 fHbp), recombinant (Neisseria cinerea); experiment: SPR
[3] = biological target: B2; experiment: SPR; settings: both partners purified
[4] = biological target: T1, full-length human CFH (Sigma) (human, UniProt P08603 19-1231); experiment: ELISA; plates coated with recombinant fHbp (3 ug/ml); full-length human CFH (Sigma) in 2-fold dilutions from 10 ug/ml; detected with anti-CFH antibody; settings: both partners purified
T1 construct: also called full-length CFH; source: bought: Sigma

## Neisseria meningitidis V1.1 factor H binding protein (V1.1 fHbp), recombinant (from UniProt Q9JXV4) I311A
[1]; CFH 1.25 µg/ml (x position estimated), parent: est. 0.35
  response: 0.073 OD 450nm
[1]; CFH 2.5 µg/ml, parent: est. 0.40
  response: 0.082 OD 450nm
[1]; CFH 5 μg/ml, parent: est. 0.40
  response: 0.082 OD 450nm
[1]; CFH 5 µg/ml, parent: est. 0.41
  response: 0.11 OD 450nm
[1]; CFH 10 µg/ml, parent: est. 0.47
  response: 0.19 OD 450nm

## recombinant CFH6–7 (CCP domains 6 and 7 of complement factor H) (from UniProt P08603 321-443) (domain or fragment)
[2]
  Kd: 3.5 nM

B1: recombinant CFH6–7 (CCP domains 6 and 7 of complement factor H) (domain or fragment, human)
chain: TLKPCDYPDIKHGGLYHENMRRPYFPVAVGKYYSYYCDEHFETPSGSYWDHIHCTQDGWSPAVPCLRKCYFPYLENGYNQNYGRKFVQGKSIDVACHPGYALPKAQTTVTCMENGWSPTPRCI
[3]
  Kd: 3 ± 0.5 nM

## B2
[4]
  binding result: binds
